Reference: paper PMC4788495 (Journal of bioenergetics and biomembranes, 2008)

B1: cytochrome c1 subunit of the R. sphaeroides cytochrome bc1 complex (Rsbc1), his-tag at the C-terminus (natural protein, UniProt Q02760 23-285, looked up)
chain: AGGGHVEDVPFSFEGPFGTFDQHQLQRGLQVYTEVCAACHGMKFVPIRSLSEPGGPELPEDQVRAYATQFTVTDEETGEDREGKPTDHFPHSALENAADLSLMAKARAGFHGPMGTGISQLFNGIGGPEYIYSVLTGFPEEPPKCAEGHEPDGFYYNRAFQNGSVPDTCKDANGVKTTAGSWIAMPPPLMDDLVEYADGHDASVHAMAEDVSAFLMWAAEPKLMARKQAGFTAVMFLTVLSVLLYLTNKRLWAGVKGKKKTNV
B2: cytochrome b subunit of the wild-type R. sphaeroides cytochrome bc1 complex (Rsbc1) (natural protein)
chain: GIPHDHYEPRTGIEKWLHSRLPIVALAYDTIMIPTPRNLNWMWIWGVVLAFCLVLQIVTGIVLAMHYTPHVDLAFASVEHIMRNVNGGFMLRYLHANGASLFFIAVYLHIFRGLYYGSYKAPREVTWIVGMLIYLAMMATAFMGYVLPWGQMSFWGATVITGLFGAIPGIGHSIQTWLLGGPAVDNATLNRFFSLHYLLPFVIAALVAIHIWAFHSTGNNNPTGVEVRRTSKAEAQKDTVPFWPYFIIKDVFALAVVLLVFFAIVGFMPNYLGHPDNYIEANPLSTPAHIVPEWYFLPFYAILRAFTADVWVVQIANFISFGIIDAKFFGVLAMFGAILVMALVPWLDTSPVRSGRYRPMFKIYFWLLAADFVILTWVGAQQTTFPYDWISLIASAYWFAYFLVILPILGAIEKPVAPPATIEEDFNA
B3: Rieske iron-sulfur protein subunit of the wild-type R. sphaeroides cytochrome bc1 complex (Rsbc1) (natural protein)
chain: GTRRDFLYYATAGAGAVATGAAVWPLINQMNPSADVQALASIFVDVSSVEPGVQLTVKFLGKPIFIRRRTEADIELGRSVQLGQLVDTNARNANIDAGAEATDQNRTLDEAGEWLVMWGVCTHLGCVPIGGVSGDFGGWFCPCHGSHYDSAGRIRKGPAPENLPIPLAKFIDETTIQLG
B4: cytochrome b S287R, subunit of the double mutant S287R(cyt b)/V135S(ISP) Rsbc1 (natural protein, R. sphaeroides, UniProt Q02761 1-445, looked up)
chain: MSGIPHDHYEPRTGIEKWLHSRLPIVALAYDTIMIPTPRNLNWMWIWGVVLAFCLVLQIVTGIVLAMHYTPHVDLAFASVEHIMRNVNGGFMLRYLHANGASLFFIAVYLHIFRGLYYGSYKAPREVTWIVGMLIYLAMMATAFMGYVLPWGQMSFWGATVITGLFGAIPGIGHSIQTWLLGGPAVDNATLNRFFSLHYLLPFVIAALVAIHIWAFHSTGNNNPTGVEVRRTSKAEAQKDTVPFWPYFIIKDVFALAVVLLVFFAIVGFMPNYLGHPDNYIEANPLRTPAHIVPEWYFLPFYAILRAFTADVWVVQIANFISFGIIDAKFFGVLAMFGAILVMALVPWLDTSPVRSGRYRPMFKIYFWLLAADFVILTWVGAQQTTFPYDWISLIASAYWFAYFLVILPILGAIEKPVAPPATIEEDFNAHYSPATGGTKTVVAE
B5: Rieske iron-sulfur protein V135S, subunit of the double mutant S287R(cyt b)/V135S(ISP) Rsbc1 (natural protein, R. sphaeroides, UniProt Q02762 1-187, looked up)
chain: MSNAEDHAGTRRDFLYYATAGAGAVATGAAVWPLINQMNPSADVQALASIFVDVSSVEPGVQLTVKFLGKPIFIRRRTEADIELGRSVQLGQLVDTNARNANIDAGAEATDQNRTLDEAGEWLVMWGVCTHLGCSPIGGVSGDFGGWFCPCHGSHYDSAGRIRKGPAPENLPIPLAKFIDETTIQLG

Columns and labels:
[1] = molecular target: B4; assay: crystal structure
[2] = molecular target: B2; assay: SEC
crystal structure [3] = molecular target: the molecule itself; assay: crystal structure
[4] = molecular target: B2; assay: crystal structure
crystal structure [5] = molecular target: the molecule itself; assay: crystal structure; remark: listed apart in the source

Binder: B1
binding result [1]: binds
binding result [2]: binds

Binder: B2
binding result (crystal structure [3]): binds

Binder: B3
binding result [4]: binds

Binder: B4
stoichiometry N (crystal structure [5]): 2

Binder: B5
binding result [1]: binds
